Where two headings read alike, the source gives them in different places.
Legend:
[1] = target: T1, ALPL with a deletion of the ER localization signal (ALPL transcript variant 2, NM_001127501) (human, UniProt P05186 56-501); assay: cell-based or functional assay
T1 sequence: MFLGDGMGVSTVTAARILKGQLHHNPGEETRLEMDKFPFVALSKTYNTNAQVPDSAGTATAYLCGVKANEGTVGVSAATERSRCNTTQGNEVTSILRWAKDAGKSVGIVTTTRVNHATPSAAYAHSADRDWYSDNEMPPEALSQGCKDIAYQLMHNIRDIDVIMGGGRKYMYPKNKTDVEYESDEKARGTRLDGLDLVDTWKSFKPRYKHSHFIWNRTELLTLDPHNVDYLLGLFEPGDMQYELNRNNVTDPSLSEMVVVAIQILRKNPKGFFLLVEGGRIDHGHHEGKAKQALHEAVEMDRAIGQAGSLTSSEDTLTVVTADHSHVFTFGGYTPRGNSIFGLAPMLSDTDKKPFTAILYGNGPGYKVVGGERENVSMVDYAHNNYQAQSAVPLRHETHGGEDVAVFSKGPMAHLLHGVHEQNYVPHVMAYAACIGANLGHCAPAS

[2] = target: T2, human ALPL expressed on cells (alkaline phosphatase tissue-nonspecific isozyme, NM_000478.4) (human, UniProt P05186 18-501); assay: cell-based or functional assay
T2 sequence: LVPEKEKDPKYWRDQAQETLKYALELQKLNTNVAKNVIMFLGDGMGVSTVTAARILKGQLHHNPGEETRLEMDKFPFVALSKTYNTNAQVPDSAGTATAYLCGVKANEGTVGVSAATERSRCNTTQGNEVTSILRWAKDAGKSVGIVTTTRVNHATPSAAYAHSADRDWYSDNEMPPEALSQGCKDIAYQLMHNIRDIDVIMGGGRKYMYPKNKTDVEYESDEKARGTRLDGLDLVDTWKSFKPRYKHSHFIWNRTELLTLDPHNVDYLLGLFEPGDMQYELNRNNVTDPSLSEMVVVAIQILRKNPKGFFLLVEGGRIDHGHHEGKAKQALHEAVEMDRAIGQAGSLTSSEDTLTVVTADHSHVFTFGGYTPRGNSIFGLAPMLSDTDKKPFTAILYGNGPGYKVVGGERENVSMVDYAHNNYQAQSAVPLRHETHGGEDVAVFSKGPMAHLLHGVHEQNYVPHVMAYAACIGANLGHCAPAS

[3] = target: T2, human ALPL expressed on cells (alkaline …); assay: cell-based or functional assay; remark: listed apart in the source
[4] = target: T2, human ALPL expressed on cells (alkaline …); assay: cell-based or functional assay; remark: listed apart in the source
[5] = target: T2, human ALPL expressed on cells (alkaline …); assay: binding/internalization: AAV incubated 2 or 3 h with ALPL transfected HEK 293T cells, washed, viral genomes quantified
[6] = target: T3, library of over 5,500 cDNAs overexpressed in human cells (ALPL) (Homo sapiens, UniProt P05186); assay: Cell binding array assay for receptor identification; settings: detected with anti-AAV9 antibody
T3 construct: expressed in transfected cells
T3 sequence (P05186 18-501): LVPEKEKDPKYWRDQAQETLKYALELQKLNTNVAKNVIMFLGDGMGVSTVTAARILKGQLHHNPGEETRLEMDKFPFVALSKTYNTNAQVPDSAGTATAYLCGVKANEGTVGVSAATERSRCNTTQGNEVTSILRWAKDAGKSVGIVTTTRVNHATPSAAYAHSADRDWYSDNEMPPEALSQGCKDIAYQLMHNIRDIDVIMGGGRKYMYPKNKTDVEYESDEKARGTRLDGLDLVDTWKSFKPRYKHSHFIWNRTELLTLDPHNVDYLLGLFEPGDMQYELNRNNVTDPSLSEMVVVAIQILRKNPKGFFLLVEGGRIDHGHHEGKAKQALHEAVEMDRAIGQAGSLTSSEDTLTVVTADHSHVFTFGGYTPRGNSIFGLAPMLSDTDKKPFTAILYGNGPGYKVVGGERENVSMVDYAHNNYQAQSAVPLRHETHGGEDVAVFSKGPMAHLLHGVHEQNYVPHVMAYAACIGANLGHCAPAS
Description: A cell binding array assay was then used to identify a receptor for the TTM-001 and TTM-002 capsid variants. Briefly, a library of over 5,500 cDNAs was overexpressed in human cells. Cells were contacted with a test ligand, e.g., AAV viral particles comprising a TTM-001 capsid variant or an AAV9 control capsid, which was applied to the array. Binding of the TTM-001 capsid variant or the AAV9 control capsid to the cells was detected using an anti-AAV9 antibody followed by a labeled anti-IgG detection antibody. […] This interacting protein was identified as the GPI-anchored protein, alkaline phosphatase issue-nonspecific isozyme (NM_000478.4, which is incorporated by reference herein) (ALPL). ALPL is part of a family of membrane-bound glycoproteins that hydrolyze monophosphate esters at a high pH (see, e.g., Weiss et al., Isolation and characterization of a cDNA encoding a human liver/bone/kidney-type alkaline phosphatase. Proc. Natl. Acad. Sci., 83:7182-7186 (1986), the contents of which are hereby incorporated by reference in their entirety).

Molecule	fold change in luciferase activity relative to the pCMV6 control cells (cells transfected with ALPL comprising a deletion of the ER localization signal) [1] [fold]	fold change in luciferase activity relative to the pCMV6 control cells (cells transfected with ALPL) [2] [fold]	luciferase activity, fold change relative to pCMV6 transfected HEK 293T cells (ALPL transfected cells) [3] [fold]	luciferase activity, fold change relative to pCMV6 transfected HEK 293T cells (ALPL transfected cells) [4] [fold]	fold change in viral gene expression (2^-ΔΔCT) relative to pCMV6 transfected cells [5] [fold]	interaction with ALPL in cell binding array [6]
TTM-002 capsid variant (AAV particle comprising the TTM-002 AAV9 capsid variant) (other) chain 1: MAADGYLPDWLEDNLSEGIREWWALKPGAPQPKANQQHQDNARGLVLPGYKYLGPGNGLDKGEPVNAADAAALEHDKAYDQQLKAGDNPYLKYNHADAEFQERLKEDTSFGGNLGRAVFQAKKRLLEPLGLVEEAAKTAPGKKRPVEQSPQEPDSSAGIGKSGAQPAKKRLNFGQTGDTESVPDPQPIGEPPAAPSGVGSLTMASGGGAPVADNNEGADGVGSSSGNWHCDSQWLGDRVITTSTRTWALPTYNNHLYKQISNSTSGGSSNDNAYFGYSTPWGYFDFNRFHCHFSPRDWQRLINNNWGFRPKRLNFKLFNIQVKEVTDNNGVKTIANNLTSTVQVFTDSDYQLPYVLGSAHEGCLPPFPADVFMIPQYGYLTLNDGSQAVGRSSFYCLEYFPSQMLRTGNNFQFSYEFENVPFHSSYAHSQSLDRLMNPLIDQYLYYLSKTINGHDSPHKSGQNQQTLKFSVAGPSNMAVQGRNYIPGPSYRQQRVSTTVTQNNNSEFAWPGASSWALNGRNSLMNPGPAMASHKEGEDRFFPLSGSLIFGKQGTGRDNVDADKVMITNEEEIKTTNPVATESYGQVATNHQSAQAQAQTGWVQNQGILPGMVWQDRDVYLQGPIWAKIPHTDGNFHPSPLMGGFGMKHPPPQILIKNTPVPADPPTAFNKDKLNSFITQYSTGQVSVEIEWELQKENSKRWNPEIQYTSNYYKSNNVEFAVNTEGVYSEPRPIGTRYLTRNL chain 2: TAPGKKRPVEQSPQEPDSSAGIGKSGAQPAKKRLNFGQTGDTESVPDPQPIGEPPAAPSGVGSLTMASGGGAPVADNNEGADGVGSSSGNWHCDSQWLGDRVITTSTRTWALPTYNNHLYKQISNSTSGGSSNDNAYFGYSTPWGYFDFNRFHCHFSPRDWQRLINNNWGFRPKRLNFKLFNIQVKEVTDNNGVKTIANNLTSTVQVFTDSDYQLPYVLGSAHEGCLPPFPADVFMIPQYGYLTLNDGSQAVGRSSFYCLEYFPSQMLRTGNNFQFSYEFENVPFHSSYAHSQSLDRLMNPLIDQYLYYLSKTINGHDSPHKSGQNQQTLKFSVAGPSNMAVQGRNYIPGPSYRQQRVSTTVTQNNNSEFAWPGASSWALNGRNSLMNPGPAMASHKEGEDRFFPLSGSLIFGKQGTGRDNVDADKVMITNEEEIKTTNPVATESYGQVATNHQSAQAQAQTGWVQNQGILPGMVWQDRDVYLQGPIWAKIPHTDGNFHPSPLMGGFGMKHPPPQILIKNTPVPADPPTAFNKDKLNSFITQYSTGQVSVEIEWELQKENSKRWNPEIQYTSNYYKSNNVEFAVNTEGVYSEPRPIGTRYLTRNL chain 3: MASGGGAPVADNNEGADGVGSSSGNWHCDSQWLGDRVITTSTRTWALPTYNNHLYKQISNSTSGGSSNDNAYFGYSTPWGYFDFNRFHCHFSPRDWQRLINNNWGFRPKRLNFKLFNIQVKEVTDNNGVKTIANNLTSTVQVFTDSDYQLPYVLGSAHEGCLPPFPADVFMIPQYGYLTLNDGSQAVGRSSFYCLEYFPSQMLRTGNNFQFSYEFENVPFHSSYAHSQSLDRLMNPLIDQYLYYLSKTINGHDSPHKSGQNQQTLKFSVAGPSNMAVQGRNYIPGPSYRQQRVSTTVTQNNNSEFAWPGASSWALNGRNSLMNPGPAMASHKEGEDRFFPLSGSLIFGKQGTGRDNVDADKVMITNEEEIKTTNPVATESYGQVATNHQSAQAQAQTGWVQNQGILPGMVWQDRDVYLQGPIWAKIPHTDGNFHPSPLMGGFGMKHPPPQILIKNTPVPADPPTAFNKDKLNSFITQYSTGQVSVEIEWELQKENSKRWNPEIQYTSNYYKSNNVEFAVNTEGVYSEPRPIGTRYLTRNL	2	24	166	44	5.92	–
TTM-001: AAV9 capsid variant comprising SPHSKA (SEQ ID NO: 941) in loop IV (protein) chain 1: MAADGYLPDWLEDNLSEGIREWWALKPGAPQPKANQQHQDNARGLVLPGYKYLGPGNGLDKGEPVNAADAAALEHDKAYDQQLKAGDNPYLKYNHADAEFQERLKEDTSFGGNLGRAVFQAKKRLLEPLGLVEEAAKTAPGKKRPVEQSPQEPDSSAGIGKSGAQPAKKRLNFGQTGDTESVPDPQPIGEPPAAPSGVGSLTMASGGGAPVADNNEGADGVGSSSGNWHCDSQWLGDRVITTSTRTWALPTYNNHLYKQISNSTSGGSSNDNAYFGYSTPWGYFDFNRFHCHFSPRDWQRLINNNWGFRPKRLNFKLFNIQVKEVTDNNGVKTIANNLTSTVQVFTDSDYQLPYVLGSAHEGCLPPFPADVFMIPQYGYLTLNDGSQAVGRSSFYCLEYFPSQMLRTGNNFQFSYEFENVPFHSSYAHSQSLDRLMNPLIDQYLYYLSKTINGSGSPHSKAQNQQTLKFSVAGPSNMAVQGRNYIPGPSYRQQRVSTTVTQNNNSEFAWPGASSWALNGRNSLMNPGPAMASHKEGEDRFFPLSGSLIFGKQGTGRDNVDADKVMITNEEEIKTTNPVATESYGQVATNHQSAQAQAQTGWVQNQGILPGMVWQDRDVYLQGPIWAKIPHTDGNFHPSPLMGGFGMKHPPPQILIKNTPVPADPPTAFNKDKLNSFITQYSTGQVSVEIEWELQKENSKRWNPEIQYTSNYYKSNNVEFAVNTEGVYSEPRPIGTRYLTRNL chain 2: GSGSPHSKAQNQQT	–	–	–	–	–	a unique interaction with the TTM-001 capsid variant

— patent US20260250318A1, “COMPOSITIONS AND METHODS FOR CROSSING THE BLOOD BRAIN BARRIER” (VOYAGER THERAPEUTICS, INC., priority 2022, published 2026)
